According to US20210341448A1, “SCREENING METHOD FOR THERAPEUTIC DRUG OR PROPHYLACTIC DRUG FOR TAUOPATHY AND DIAGNOSTIC METHOD FOR TAUOPATHY” (National Center for Geriatrics and Gerontology, priority 2018, published 2021):

Tests used:
NMDAR [1] = target: T1, NMDAR (Mus musculus, UniProt P35436+P35438+Q01097); assay: Coimmunoprecipitation of tau and NMDAR with anti-tau antibody (TauC); format: binding; details: tau knockout brain slice exposed to tau oligomer sample, IP: TauC, western blot anti-NR1
T1 construct: from tissue
Description: Whether or not the tau oligomers directly bind and interact with NMDARs was tested by the coimmunoprecipitation. The tau-knockout-brain slice specimens exposed to the tau oligomer sample prepared by the procedure of the above (2-1) and (2-2) was homogenized in 50-fold volume of the lysis buffer (4 mM of HEPES, 2 mM of EGTA, 0.32 M of sucrose, 1% Protease Inhibitor Cocktail, 1% Phosphatase Inhibitor Cocktail (Nacalai Tesque Inc., #07575-51)) and was centrifuged at 4° C., 12,000×g for 15 minutes to thereby collect pellets. The obtained pellets were dissolved in a 0.1% Triton X-100/TBS solution (25 mM of Tris-HCl, 150 mM of NaCl, 1 mM of EDTA, 1% NP-40, 5% glycerol, 0.1% Triton X-100, pH 7.4) and the resultant was used as a membrane protein solution. Coimmunoprecipitation on the obtained membrane protein solution was carried out by using an anti-tau antibody (TauC) (Dako, #A0024) (1:2000 dilution) and Pierce Direct Magnetic IP/Co-IP Kit (Thermo Fisher Scientific, #88828), in accordance with the recommended protocol by the kit. The collected coimmunoprecipitation samples were electrophoresed and then NMDAR was detected by the western blot. The antibody used was an anti-NR1 subunit antibody (Merck Millipore, #MAN363) (1:2000 dilution).

[2] = system: postsynaptic NMDAR and AMPAR; assay: Western blot of NMDA and AMPA receptor amounts on the synapse, brain slices of aging C57BL/6 mice; set-up: species or system mouse; details: aging C57BL/6 brain slice, 0.5% Triton X-100-insoluble membrane fraction
Description: As the molecule mechanism of NMDAR-LTD, it has been known that the AMPA receptors (hereinafter described as “AMPAR”) and/or the NMDA receptors (NMDAR) are incorporated into a cell by the endocytosis in the postsynaptic membrane caused by the activation of the NMDA receptors. Thus, an analysis was performed on the changes in amount of NMDARs and AMPARs on synapses in the brain slice specimens exposed to the tau oligomer sample and the brain slice specimens not exposed to the tau oligomer sample, prepared by the procedures of the above (2-1) and (2-2).
The brain slice specimens were frozen and disrupted in a 50-fold volume of homogenizing buffer (4 mM of HEPES, 2 mM of EGTA, 0.32 M of sucrose, pH 7.4) using a Teflon® homogenizer. The disrupted tissue solution was centrifuged at 4° C., 1,000×g for 15 minutes to thereby collect the supernatant, and the supernatant was further centrifuged at 4° C., 12,000×g for 15 minutes to thereby collect membrane fractions (pellets). The obtained membrane fractions were dissolved in tris-buffered saline containing 0.5% Triton X-100 (50 mM of Tris, 500 mM of NaCl, pH 7.4) and were centrifuged at 4° C., 20,000×g for 15 minutes. […] The western blot was carried out on the 0.5% Triton X-100-insoluble membrane fraction sample to quantify the AMPA receptor (GluA2 subunit) and the NMDA receptors (NR2a and NR2b subunits). […]

NMDAR [3] = target: T1, NMDAR; assay: Pull-down assay of HT-tau oligomer with membrane protein of tau knockout mouse brain; format: binding; details: HT-tau oligomers immobilized on HaloTag beads, western blot anti-NR1
Description: Whether or not the tau oligomer and NMDAR directly bind and interact was confirmed by a pull-down assay using the HT-tau oligomer. Magne™ HaloTag beads (Promega Corporation, #G728A) (50 mg) were added to the HT-tau oligomer sample (100 μl) prepared in the above (1-4), and a binding reaction was carried out at 4° C. for 12 hours to thereby immobilize the HT-tau oligomers on the beads. Additionally, brain slice specimens were prepared from tau knockout mice (B6.129X1-Mapt^tm1Hnd/J, Jackson Laboratory) by the same procedure as in the above (2-1) and were homogenized in 50-fold volume of the lysis buffer (4 mM of HEPES, 2 mM of EGTA, 0.32 M of sucrose, 1% Protease Inhibitor Cocktail, 1% Phosphatase Inhibitor Cocktail (Nacalai Tesque Inc., #07575-51)), and the lysate was centrifuged at 4° C., 12,000×g for 15 minutes to thereby collect pellets. The obtained pellets were dissolved in a 2% cholic acid or 1% deoxycholate/TBS solution (25 mM of Tris-HCl, 150 mM of NaCl, pH 7.4) and the resultant was used as a membrane protein solution. […] The obtained tau oligomer-membrane protein complexes were applied to SDS-PAGE electrophoresis, and NMDARs were detected by the western blot. […]

T1 sequence (P35436 23-1464, other chains not shown): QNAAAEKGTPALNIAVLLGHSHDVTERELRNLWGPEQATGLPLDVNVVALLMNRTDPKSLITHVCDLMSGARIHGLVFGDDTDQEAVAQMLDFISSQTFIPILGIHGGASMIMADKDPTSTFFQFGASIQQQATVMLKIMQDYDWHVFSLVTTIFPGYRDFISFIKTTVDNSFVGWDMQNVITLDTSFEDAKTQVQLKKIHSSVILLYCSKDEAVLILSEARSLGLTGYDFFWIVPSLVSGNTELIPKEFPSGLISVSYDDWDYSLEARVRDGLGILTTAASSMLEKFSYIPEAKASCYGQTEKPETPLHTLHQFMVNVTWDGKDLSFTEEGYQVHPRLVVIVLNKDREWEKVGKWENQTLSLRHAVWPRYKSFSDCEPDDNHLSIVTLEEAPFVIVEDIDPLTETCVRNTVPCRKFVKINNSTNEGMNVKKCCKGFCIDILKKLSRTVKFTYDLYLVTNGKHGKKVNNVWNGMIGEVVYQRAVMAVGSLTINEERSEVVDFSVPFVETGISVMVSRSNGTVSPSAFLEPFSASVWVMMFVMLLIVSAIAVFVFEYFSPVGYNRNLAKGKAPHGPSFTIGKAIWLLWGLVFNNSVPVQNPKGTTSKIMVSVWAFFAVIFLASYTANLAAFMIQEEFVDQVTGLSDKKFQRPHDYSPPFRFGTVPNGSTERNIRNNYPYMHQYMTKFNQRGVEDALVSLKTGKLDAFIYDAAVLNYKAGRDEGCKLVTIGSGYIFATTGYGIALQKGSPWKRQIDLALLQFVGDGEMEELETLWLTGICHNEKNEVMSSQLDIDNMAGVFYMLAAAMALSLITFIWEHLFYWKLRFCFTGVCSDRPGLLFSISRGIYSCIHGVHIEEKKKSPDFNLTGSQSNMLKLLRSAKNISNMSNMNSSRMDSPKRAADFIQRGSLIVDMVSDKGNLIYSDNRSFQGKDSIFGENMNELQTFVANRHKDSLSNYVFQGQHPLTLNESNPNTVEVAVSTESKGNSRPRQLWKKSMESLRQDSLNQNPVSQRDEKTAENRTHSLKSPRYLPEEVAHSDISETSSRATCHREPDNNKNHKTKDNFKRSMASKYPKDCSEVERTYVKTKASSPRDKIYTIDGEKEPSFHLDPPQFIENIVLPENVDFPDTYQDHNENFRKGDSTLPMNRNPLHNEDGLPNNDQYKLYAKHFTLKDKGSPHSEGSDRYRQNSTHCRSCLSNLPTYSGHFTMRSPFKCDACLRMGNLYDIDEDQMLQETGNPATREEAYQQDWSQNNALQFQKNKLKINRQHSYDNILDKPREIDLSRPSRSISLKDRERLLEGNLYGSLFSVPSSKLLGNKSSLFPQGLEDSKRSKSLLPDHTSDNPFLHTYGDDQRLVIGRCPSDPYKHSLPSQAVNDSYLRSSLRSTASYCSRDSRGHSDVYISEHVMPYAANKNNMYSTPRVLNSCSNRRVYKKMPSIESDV
T1 sequence (Q01097 27-1482, other chains not shown): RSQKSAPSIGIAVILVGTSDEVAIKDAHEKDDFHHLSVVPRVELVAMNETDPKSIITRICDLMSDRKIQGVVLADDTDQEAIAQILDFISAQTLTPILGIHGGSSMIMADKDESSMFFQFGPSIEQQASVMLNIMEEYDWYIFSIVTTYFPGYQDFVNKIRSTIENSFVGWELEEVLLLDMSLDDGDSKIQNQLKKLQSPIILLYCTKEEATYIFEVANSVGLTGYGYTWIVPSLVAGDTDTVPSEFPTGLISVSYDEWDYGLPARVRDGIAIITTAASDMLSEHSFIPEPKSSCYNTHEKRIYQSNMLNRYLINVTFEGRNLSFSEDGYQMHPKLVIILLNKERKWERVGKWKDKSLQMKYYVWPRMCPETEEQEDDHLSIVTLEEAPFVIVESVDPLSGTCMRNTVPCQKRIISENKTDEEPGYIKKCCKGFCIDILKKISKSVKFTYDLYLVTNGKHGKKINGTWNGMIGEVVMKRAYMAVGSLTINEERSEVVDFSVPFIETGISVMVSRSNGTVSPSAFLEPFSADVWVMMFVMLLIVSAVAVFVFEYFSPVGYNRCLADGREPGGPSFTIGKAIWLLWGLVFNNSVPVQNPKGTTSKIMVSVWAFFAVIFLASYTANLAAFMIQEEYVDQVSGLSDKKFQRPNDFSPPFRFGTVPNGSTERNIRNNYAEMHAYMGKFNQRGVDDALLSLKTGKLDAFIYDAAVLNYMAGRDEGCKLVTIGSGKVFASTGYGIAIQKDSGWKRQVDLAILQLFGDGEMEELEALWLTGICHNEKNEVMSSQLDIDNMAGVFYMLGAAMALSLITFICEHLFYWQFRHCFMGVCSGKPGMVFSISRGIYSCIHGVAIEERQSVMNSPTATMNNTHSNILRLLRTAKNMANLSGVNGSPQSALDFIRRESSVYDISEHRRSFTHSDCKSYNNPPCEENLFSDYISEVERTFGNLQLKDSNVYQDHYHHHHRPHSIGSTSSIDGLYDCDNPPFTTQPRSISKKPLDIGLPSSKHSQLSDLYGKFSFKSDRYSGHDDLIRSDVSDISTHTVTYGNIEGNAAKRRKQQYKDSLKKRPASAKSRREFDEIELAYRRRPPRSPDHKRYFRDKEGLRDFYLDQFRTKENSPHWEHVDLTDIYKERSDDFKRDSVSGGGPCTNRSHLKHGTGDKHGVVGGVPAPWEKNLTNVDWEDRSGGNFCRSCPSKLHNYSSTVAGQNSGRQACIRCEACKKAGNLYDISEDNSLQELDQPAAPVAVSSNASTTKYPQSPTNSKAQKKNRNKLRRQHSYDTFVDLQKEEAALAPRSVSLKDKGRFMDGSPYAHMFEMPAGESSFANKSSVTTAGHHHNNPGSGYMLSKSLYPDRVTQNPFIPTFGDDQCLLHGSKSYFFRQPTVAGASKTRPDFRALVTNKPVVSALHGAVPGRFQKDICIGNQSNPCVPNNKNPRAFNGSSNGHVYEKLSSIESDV

binding of NMDAR in pull-down assay (NMDAR [3]): directly bound
Substance: tau oligomer: polymer of human tau 2N4R monomers, polymerized with mouse brain extract and ATP, collected as pellets
coimmunoprecipitation of NR1 subunit with tau (NMDAR [1]): clear band of the NR1 subunits was detected | amount of AMPARs on the postsynaptic site ([2]; GluA2, normalized to aCSF): reduced | amount of NMDARs on the postsynaptic site ([2]; NR2a and NR2b, normalized to aCSF): reduced
